Assay results as given in patent US20150139996A1.
Like-named read-outs stand apart in the source and are kept apart here. Each block holds one substance with its values, some of them ahead of it.

Assays:
[1] = biological target: IgG1 heavy chain with CH3 construct 1 (E356K, D399K) (human) [IgG part: P01857]; experiment: native MS; transfection T: vectors IV+VII+VIII 2:1:1; homodimer of vector IV
[2] = biological target: IgG1 heavy chain with CH3 construct 2 (K392D, K409D) (human) [IgG part: P01857]; experiment: native MS; transfection S: vectors IV+V+VI 2:1:1; AB = vector IV with vector VI
[3] = biological target: IgG1 heavy chain with CH3 construct 3 (K392D, K409D, K439D) (human) [IgG part: P01857]; experiment: native MS; transfection T: vectors IV+VII+VIII 2:1:1; AB = vector IV with vector VIII
[4] = biological target: IgG1 heavy chain with CH3 construct 2 (K392D, K409D) (human) [IgG part: P01857]; experiment: native MS; transfection S: vectors IV+V+VI 2:1:1; BC = vector IV with vector V
[5] = biological target: IgG1 heavy chain with CH3 construct 2 (K392D, K409D) (human) [IgG part: P01857]; experiment: native MS; transfection K: vectors IV+V+VI 1:1:1; BC = vector IV with vector V (fibrinogen VH)
[6] = biological target: IgG1 heavy chain with CH3 construct 1 (E356K, D399K) (human) [IgG part: P01857]; experiment: native MS; transfection B: vector IV alone (thyroglobulin VH, construct 1)
[7] = biological target: IgG1 heavy chain with CH3 construct 2 (K392D, K409D) (human) [IgG part: P01857]; experiment: native MS; transfection I: vectors IV+V co-expressed 1:1
[8] = biological target: IgG1 heavy chain with CH3 construct 2 (K392D, K409D) (human) [IgG part: P01857]; experiment: native MS (peak height); transfection #9 of Table 24; CD = C (fibrinogen)/1 with D (RTK2)/2
[9] = biological target: IgG1 heavy chain with CH3 construct 3 (K392D, K409D, K439D) (human) [IgG part: P01857]; experiment: native MS; transfection L: vectors IV+VII+VIII 1:1:1; BC = vector IV with vector VII
[10] = biological target: IgG1 heavy chain with CH3 construct 3 (K392D, K409D, K439D) (human) [IgG part: P01857]; experiment: native MS; transfection T: vectors IV+VII+VIII 2:1:1; BC = vector IV with vector VII
[11] = biological target: IgG1 heavy chain with CH3 construct 1 (E356K, D399K) (human) [IgG part: P01857]; experiment: native MS; transfection S: vectors IV+V+VI 2:1:1; homodimer of vector IV
[12] = biological target: IgG1 heavy chain with CH3 construct 1 (E356K, D399K) (human) [IgG part: P01857]; experiment: SDS-PAGE of protein A-purified supernatant; construct expressed alone
[13] = biological target: IgG1 heavy chain with CH3 construct 2 (K392D, K409D) (human) [IgG part: P01857]; experiment: native MS (peak height); transfection #11 of Table 24; CC = C (fibrinogen)/1 with C/2
[14] = biological target: IgG1 heavy chain with CH3 construct 2 (K392D, K409D) (human) [IgG part: P01857]
[15] = biological target: IgG1 heavy chain with CH3 construct 3 (K392D, K409D, K439D) (human) [IgG part: P01857]; experiment: native MS; transfection J: vectors IV+VII co-expressed 1:1
[16] = biological target: IgG1 heavy chain with CH3 construct 3 (K392D, K409D, K439D) (human) [IgG part: P01857]; experiment: native MS; transfection L: vectors IV+VII+VIII 1:1:1; AB = vector IV with vector VIII
[17] = biological target: IgG1 heavy chain with CH3 construct 4 (K392D, D399K, K409D) (human) [IgG part: P01857]; experiment: native MS; transfection M: vectors I+II co-expressed 1:1
[18] = biological target: IgG1 heavy chain with CH3 construct 4 (K392D, D399K, K409D) (human) [IgG part: P01857]; experiment: native MS; transfection V: vectors I+II+III co-expressed 1:1:10
[19] = biological target: IgG1 heavy chain with CH3 construct 4 (K392D, D399K, K409D) (human) [IgG part: P01857]; experiment: native MS; transfection O: vectors I+II+III co-expressed 1:1:1
[20] = biological target: IgG1 heavy chain with CH3 construct 4 (K392D, D399K, K409D) (human) [IgG part: P01857]; experiment: native MS; transfection G: vector II alone (VH MF1025, construct 4)
[21] = biological target: IgG1 heavy chain with CH3 construct 5 (E356K, E357K, K439D, K370D) (human) [IgG part: P01857]; experiment: native MS; transfection U: vectors I+III co-expressed 1:5
[22] = biological target: IgG1 heavy chain with CH3 construct 5 (E356K, E357K, K439D, K370D) (human) [IgG part: P01857]; experiment: native MS; transfection N: vectors I+III co-expressed 1:1
[23] = biological target: IgG1 heavy chain with CH3 construct 5 (E356K, E357K, K439D, K370D) (human) [IgG part: P01857]; experiment: native MS; transfection V: vectors I+II+III co-expressed 1:1:10
[24] = biological target: IgG1 heavy chain with CH3 construct 5 (E356K, E357K, K439D, K370D) (human) [IgG part: P01857]; experiment: native MS; transfection O: vectors I+II+III co-expressed 1:1:1
[25] = biological target: IgG1 heavy chain with CH3 construct 5 (E356K, E357K, K439D, K370D) (human) [IgG part: P01857]; experiment: native MS; transfection H: vector III alone (VH MF1122, construct 5)
[26] = biological target: IgG1 heavy chain with CH3 construct 63 (L351D) (human) [IgG part: P01857]; experiment: native MS; transfection ZU (1:1): vectors XIII+XVI co-expressed
[27] = biological target: IgG1 heavy chain with CH3 construct 63 (L351D) (human) [IgG part: P01857]; experiment: native MS; transfection ZO (1:1): vectors XIII+XVI co-expressed
[28] = biological target: IgG1 heavy chain with CH3 construct 63 (L351D) (human) [IgG part: P01857]; experiment: native MS; combination 2 co-expressed (A: VH MF1337, B: VH MF1122)
[29] = biological target: IgG1 heavy chain with CH3 construct 63 (L351D) (human) [IgG part: P01857]; experiment: native MS; transfection ZW (1:1): vectors XIII+XVI co-expressed
[30] = biological target: IgG1 heavy chain with CH3 construct 63 (L351D) (human) [IgG part: P01857]; experiment: native MS; transfection ZV (1:3): vectors XIII+XVI co-expressed
[31] = biological target: IgG1 heavy chain with CH3 construct 63 (L351D) (human) [IgG part: P01857]; experiment: native MS; combination 7 co-expressed (A: VH MF1337, B: VH MF1122)
[32] = biological target: IgG1 heavy chain with CH3 construct 63 (L351D) (human) [IgG part: P01857]; experiment: SDS-PAGE of protein A-purified supernatant; construct expressed alone
[33] = biological target: IgG1 heavy chain with CH3 construct 63 (L351D) (human) [IgG part: P01857]; experiment: native MS; transfection ZT (3:1): vectors XIII+XVI co-expressed
[34] = biological target: IgG1 heavy chain with CH3 construct 64 (T366D) (human) [IgG part: P01857]; experiment: native MS; transfection ZP: vectors XIV+XVII co-expressed
[35] = biological target: IgG1 heavy chain with CH3 construct 64 (T366D) (human) [IgG part: P01857]; experiment: native MS; combination 16 co-expressed (A: VH MF1337, B: VH MF1122)
[36] = biological target: IgG1 heavy chain with CH3 construct 77 (L351R) (human) [IgG part: P01857]; experiment: as above
[37] = biological target: IgG1 heavy chain with CH3 construct 64 (T366D) (human) [IgG part: P01857]; experiment: SDS-PAGE of protein A-purified supernatant; construct expressed alone
[38] = biological target: IgG1 heavy chain with CH3 construct 64 (T366D) (human) [IgG part: P01857]; experiment: native MS; combination 15 co-expressed (A: VH MF1337, B: VH MF1122)
[39] = biological target: IgG1 heavy chain with CH3 construct 76 (L351K, L368K) (human) [IgG part: P01857]; experiment: as above
[40] = biological target: IgG1 heavy chain with CH3 construct 65 (S354D, Y349D) (human) [IgG part: P01857]; experiment: native MS; transfection ZQ: vectors XII+XVIII co-expressed
[41] = biological target: IgG1 heavy chain with CH3 construct 66 (V397D) (human) [IgG part: P01857]; experiment: native MS; transfection ZR: vectors XV+XIX co-expressed
[42] = biological target: IgG1 heavy chain with CH3 construct 67 (K360D) (human) [IgG part: P01857]; experiment: native MS; transfection ZS: vectors XI+XX co-expressed
[43] = biological target: IgG1 heavy chain with CH3 construct 72 (L351D, R355D) (human) [IgG part: P01857]; experiment: SDS-PAGE of protein A-purified supernatant; construct expressed alone
[44] = biological target: IgG1 heavy chain with CH3 construct 72 (L351D, R355D) (human) [IgG part: P01857]; experiment: native MS; combination 8 co-expressed (A: VH MF1337, B: VH MF1122)
[45] = biological target: IgG1 heavy chain with wildtype CH3 (construct vector MV1057, wildtype IgG1 Fc) (human) [IgG part: P01857]; experiment: native MS; transfection U: vectors I+III co-expressed 1:5
[46] = biological target: IgG1 heavy chain with wildtype CH3 (construct vector MV1057, wildtype IgG1 Fc) (human) [IgG part: P01857]; experiment: native MS; transfection N: vectors I+III co-expressed 1:1
[47] = biological target: IgG1 heavy chain with wildtype CH3 (construct vector MV1057, wildtype IgG1 Fc) (human) [IgG part: P01857]; experiment: native MS; transfection M: vectors I+II co-expressed 1:1
[48] = biological target: IgG1 heavy chain with wildtype CH3 (construct vector MV1057, wildtype IgG1 Fc) (human) [IgG part: P01857]; experiment: native MS; transfection A: vector I alone (VH MF1337, wildtype CH3)
[49] = biological target: IgG1 heavy chain with wildtype CH3 (construct vector MV1057, wildtype IgG1 Fc) (human) [IgG part: P01857]; experiment: native MS; transfection V: vectors I+II+III co-expressed 1:1:10
[50] = biological target: IgG1 heavy chain with wildtype CH3 (construct vector MV1057, wildtype IgG1 Fc) (human) [IgG part: P01857]; experiment: native MS; transfection O: vectors I+II+III co-expressed 1:1:1

Substance: IgG1 heavy chain with CH3 construct 1 (E356K, D399K) (from UniProt P01857-1)
Other molecules (%) [1]: 3%
Bispecific found (%) [2]: 55%
Bispecific found (%) [3]: 39%
Bispecific found (%) [4]: 42%
Bispecific found (%) [5]: 38%
Full IgG found (%) [6]: 60%
Half molecules found (%) [6]: 40%
Bispecific found (%) [7]: 96%
percent of species in the mixture [8]: 67%
Bispecific found (%) [9]: 16%
Bispecific found (%) [10]: 58%
Other molecules (%) [11]: 3%
% IgG [12]: 64.2%
% half molecule [12]: 35.8%
percent of species in the mixture [13]: 61%
Bispecific found (%) [14]: 47%
Bispecific found (%) [15]: 96%
Bispecific found (%) [16]: 60%

BB found (%) [17]: 45%
BB found (%) [18]: 81%
BB found (%) [19]: 4%
BB found (%) [20]: 100%
Substance: IgG1 heavy chain with CH3 construct 4 (K392D, D399K, K409D) (from UniProt P01857-1)

CC found (%) [21]: 48%
CC found (%) [22]: 9%
CC found (%) [23]: 9%
CC found (%) [24]: 30%
CC found (%) [25]: 100%
Substance: IgG1 heavy chain with CH3 construct 5 (E356K, E357K, K439D, K370D) (from UniProt P01857-1)

Substance: IgG1 heavy chain with CH3 construct 63 (L351D) (from UniProt P01857-1)
CC found (%) [26]: 10%
CC found (%) [27]: 7%
% BB found [28]: 3%
CC found (%) [29]: 2.4%
CC found (%) [30]: 23%
% BB found [31]: 12%
% IgG [32]: 89.8%
% half molecule [32]: 10.2%
CC found (%) [33]: 16%

Substance: IgG1 heavy chain with CH3 construct 64 (T366D) (from UniProt P01857-1)
CC found (%) [34]: 13%
% AA found [35]: 30%
% AB found [36]: 69%
% IgG [37]: 89.6%
% half molecule [37]: 10.4%
% AA found [38]: 3%
% AB found [39]: 92%

Substance: IgG1 heavy chain with CH3 construct 65 (S354D, Y349D) (from UniProt P01857-1)
CC found (%) [40]: 33%

Substance: IgG1 heavy chain with CH3 construct 66 (V397D) (from UniProt P01857-1)
CC found (%) [41]: 11%

Substance: IgG1 heavy chain with CH3 construct 67 (K360D) (from UniProt P01857-1)
CC found (%) [42]: 15%

% IgG [43]: 100%
% BB found [44]: 8%
Substance: IgG1 heavy chain with CH3 construct 72 (L351D, R355D) (from UniProt P01857-1)

AA found (%) [45]: 47%
AA found (%) [46]: 88%
AA found (%) [47]: 51%
AA found (%) [48]: 100%
AA found (%) [49]: 8%
AA found (%) [50]: 66%
Substance: IgG1 heavy chain with wildtype CH3 (construct vector MV1057, wildtype IgG1 Fc) (from UniProt P01857-1)
